Data from patent publication WO2008073463A2 (dated 2008).

B3: soluble human IL-13 receptor alpha2 with a human IgG1 Fc tail (sIL13Rα2-Fc) (Fc fusion, UniProt Q14627 27-343, looked up, not shown: a dimerising Fc or GST)
chain: DTEIKVNPPQDFEIVDPGYLGYLYLQWQPPLSLDHFKECTVEYELKYRNIGSETWKTIITKNLHYKDGFDLNKGIEAKIHTLLPWQCTNGSEVQSSWAETTYWISPQGIPETKVQDMDCVYYNWQYLLCSWKPGIGVLLDTNYNLFYWYEGLDHALQCVDYIKADGQNIGCRFPYLEASDYKDFYICVNGSSENKPIRSSYFTFQLQNIVKPLPPVYLTFTRESSCEIKLKWSIPLGPIPARCFDYEIEIREDDTTLVTATVENETYTLKTTNETRQLCFVVRSKVNIYCSDDGIWSEWSDKQCWEGEDLSKKTLLR
B6: cynomolgus monkey IL-13 (NHP IL-13), recombinant (ligand)
chain: SPVPPSTALKELIEELVNITQNQKAPLCNGSMVWSINLTAGVYCAALESLINVSGCSAIEKTQRMLNGFCPHKVSAGQFSSLRVRDTKIEVAQFVKDLLVHLKKLFREGQFN
notes: also called non-human primate IL-13; cynomolgus IL-13

Key:
[1] = target: native human IL-13 (crude preparation from activated human cord blood Th2 cells) (human, UniProt P35225 34-146); test: cell-based or functional assay
[2] = target: B6; test: cell-based or functional assay
[3] = target: B6; test: SPR (BIACORE), Kd = kd / ka
[4] = target: B6; test: SPR (BIACORE), antibody captured on goat anti-human IgG Fc, NHP-IL-13 0.09-600 nM, 1:1 model, 22.5 C
[5] = target: B3; test: not described

Sequence of native human IL-13 (crude preparation from activated human cord blood Th2 cells) (P35225 other isoform, or with tags, fused parts or gaps): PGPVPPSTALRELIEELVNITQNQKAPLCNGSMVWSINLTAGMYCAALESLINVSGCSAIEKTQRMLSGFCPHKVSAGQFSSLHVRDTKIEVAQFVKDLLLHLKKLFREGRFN

B1: mouse monoclonal antibody MJ 2-7 (antibody, mouse IgG1, V domains shown)
VH: EVQLQQSGAELVKPGASVKLSCTGSGFNIKDTYIHWVKQRPEQGLEWIGRIDPANDNIKYDPKFQGKATITADTSSNTAYLQLNSLTSEDTAVYYCARSEENWYDFFDYWGQGTTLTVSS
VL: DVLMTQTPLSLPVSLGDQASISCRSSQSIVHSNGNTYLEWYLQKPGQSPKLLIYKVSNRFSGVPDRFSGSGSGTDFTLKISRVEAEDLGVYYCFQGSHIPYTFGGGTKLEIK
Which results are given for B1?
IC50, STAT6 phosphorylation in HT-29 cells (0.3 ng/ml native human IL-13) [1]: 0.48 nM; IC50, inhibition of STAT6 phosphorylation (native human IL-13 at 1 ng/ml) [1]: ~0.293 nM; IC50, tenascin C production by BEAS-2B cells (3 ng/ml native human IL-13) [1]: ~0.1 nM; IC50, inhibition of CD23 expression (non-human primate IL-13 at 1 ng/ml) [2]: ~0.242 nM

B2: humanized MJ 2-7 V2.11 IgG1 with a mutated CH2 domain (antibody, V domains shown)
VH: EVQLVESGGGLVQPGGSLRLSCAASGFNIKDTYIHWVRQAPGKGLEWIGRIDPANDNIKYDPKFQGRFTISADNAKNSAYLQMNSLRAEDTAVYYCARSEENWYDFFDYWGQGTLVTVSS
VL: DIQMTQSPSSLSASVGDRVTITCRSSQSIVHSNGNTYLEWYQQKPGKAPKLLIYKVSNRFSGVPSRFSGSGSGTDFTLTISSLQPEDFATYYCFQGSHIPYTFGGGTKVEIKR
notes: 'QSΓVΉS' read as QSIVHS; also called huMJ 2-7 V2.11; hMJ2-7 V2-11
How did the Kd [3] turn out when B2 was run?
The Kd was 0.043 nM.

What about the “IC50, STAT6 phosphorylation in HT-29 cells (0.3 ng/ml native human IL-13)” value [1] of the same binder?
The value was 0.52 nM.

What about the koff [4] of the same binder?
The koff was 0.000889 s⁻¹.

What about the kon [4] of the same binder?
The kon was 2.05e+07 M⁻¹ s⁻¹.

How did the “IC50, STAT6 phosphorylation in HT-29 cells (0.3 ng/ml native human IL-13)” value [1] turn out when B3 was run?
The value was 0.33 nM.

B4: mouse monoclonal antibody C65 (antibody, V domains shown)
VH: QVQLKESGPGLVAPSQSLSITCTVSGFSLTGYGVNWVRQPPGKGLEWLGIIWGDGSTDYNSALKSRLIINKDNSKSQVFLKMNSLQTDDTARYFCARDKTFYYDGFYRGRMDYWGQGTSVTVSS
VL: DVQMIQSPSSLSASLGDIVTMTCQASQGTSINLNWFQQKPGKAPKLLIFGASNLEDGVPSRFSGSRYGTNFTLTISSLEDEDMATYFCLQHSYLPWTFGGGTKLEIK
B4 was tested. Which “STAT6 phosphorylation in HT-29 cells (0.3 ng/ml native human IL-13)” value [1] did it give?
Its value is about 20 fold less active.

What about the “monocyte CD23 expression (3 ng/ml NHP IL-13)” value [2] of the same binder?
Its value is ~20 fold less active than MJ2-7 and sIL-13Rα2-Fc.

B5: humanized MJ 2-7 V2 (hMJ 2-7 VH V2 with hMJ 2-7 VL V2) (antibody, human IgG1, V domains shown)
VH: EVQLVESGGGLVQPGGSLRLSCAASGFNIKDTYIHWVRQAPGKGLEWVARIDPANDNIKYDPKFQGRFTISRDNAKNSLYLQMNSLRAEDTAVYYCARSEENWYDFFDYWGQGTLVTVSS
VL: DIQMTQSPSSLSASVGDRVTITCRSSQSIVHSNGNTYLEWYQQKPGKAPKLLIYKVSNRFSGVPSRFSGSGSGTDFTLTISSLQPEDFATYYCFQGSHIPYTFGGGTKVEIKR
How did the “concentration for half-maximal inhibition of native human IL-13 bioactivity, against murine MJ2-7” value [1] turn out when B5 was run?
Its value is ~110 fold greater than murine MJ2-7.

Does B6 bind [5]?
Result: binds
